US20150344540A1, “NOVEL GLP-1 RECEPTOR AGONISTS WITH CHOLESTEROL EFFLUX ACTIVITY” (NOVO NORDISK A/S, priority 2012, published 2015)
Where no end group is shown, it is not given here. [ ]: non-standard residue; d: D form. Aib = CC(C)(N)C(=O)O

B1: [Aib2,Glu21,Aib30,Leu31,Glu32,Phe33,Leu34,Glu35,Leu36,Leu37]-Exendin-4-(1-37)-peptide amide (peptide)
peptide: H[Aib]EGTFTSDLSKQMEEEAVREFIEWLKNG[Aib]LEFLELL-NH2
modifications: N-terminus assumed
SMILES: CC[C@H](C)[C@H](NC(=O)[C@H](Cc1ccccc1)NC(=O)[C@H](CCC(=O)O)NC(=O)[C@H](CCCNC(=N)N)NC(=O)[C@@H](NC(=O)[C@H](C)NC(=O)[C@H](CCC(=O)O)NC(=O)[C@H](CCC(=O)O)NC(=O)[C@H](CCC(=O)O)NC(=O)[C@H](CCSC)NC(=O)[C@H](CCC(N)=O)NC(=O)[C@H](CCCCN)NC(=O)[C@H](CO)NC(=O)[C@H](CC(C)C)NC(=O)[C@H](CC(=O)O)NC(=O)[C@H](CO)NC(=O)[C@@H](NC(=O)[C@H](Cc1ccccc1)NC(=O)[C@@H](NC(=O)CNC(=O)[C@H](CCC(=O)O)NC(=O)C(C)(C)NC(=O)[C@@H](N)Cc1c[nH]cn1)[C@@H](C)O)[C@@H](C)O)C(C)C)C(=O)N[C@@H](CCC(=O)O)C(=O)N[C@@H](Cc1c[nH]c2ccccc12)C(=O)N[C@@H](CC(C)C)C(=O)N[C@@H](CCCCN)C(=O)N[C@@H](CC(N)=O)C(=O)NCC(=O)NC(C)(C)C(=O)N[C@@H](CC(C)C)C(=O)N[C@@H](CCC(=O)O)C(=O)N[C@@H](Cc1ccccc1)C(=O)N[C@@H](CC(C)C)C(=O)N[C@@H](CCC(=O)O)C(=O)N[C@@H](CC(C)C)C(=O)N[C@@H](CC(C)C)C(N)=O
B2: [Aib8,Glu23,Val25,Leu27,Glu34,Lys35,Aib36,Lys37]-GLP-1-(7-37)-peptidyl-Glu-Phe-Leu amide (peptide)
peptide: H[Aib]EGTFTSDVSSYLEGEAVKLFIAWLVEK[Aib]KEFL-NH2
modifications: N-terminus assumed
SMILES: CC[C@H](C)[C@H](NC(=O)[C@H](Cc1ccccc1)NC(=O)[C@H](CC(C)C)NC(=O)[C@H](CCCCN)NC(=O)[C@@H](NC(=O)[C@H](C)NC(=O)[C@H](CCC(=O)O)NC(=O)CNC(=O)[C@H](CCC(=O)O)NC(=O)[C@H](CC(C)C)NC(=O)[C@H](Cc1ccc(O)cc1)NC(=O)[C@H](CO)NC(=O)[C@H](CO)NC(=O)[C@@H](NC(=O)[C@H](CC(=O)O)NC(=O)[C@H](CO)NC(=O)[C@@H](NC(=O)[C@H](Cc1ccccc1)NC(=O)[C@@H](NC(=O)CNC(=O)[C@H](CCC(=O)O)NC(=O)C(C)(C)NC(=O)[C@@H](N)Cc1c[nH]cn1)[C@@H](C)O)[C@@H](C)O)C(C)C)C(C)C)C(=O)N[C@@H](C)C(=O)N[C@@H](Cc1c[nH]c2ccccc12)C(=O)N[C@@H](CC(C)C)C(=O)N[C@H](C(=O)N[C@@H](CCC(=O)O)C(=O)N[C@@H](CCCCN)C(=O)NC(C)(C)C(=O)N[C@@H](CCCCN)C(=O)N[C@@H](CCC(=O)O)C(=O)N[C@@H](Cc1ccccc1)C(=O)N[C@@H](CC(C)C)C(N)=O)C(C)C
B3: [Aib8,Glu23,Val25,Glu34,Lys35,Aib36]-GLP-1-(7-37)-peptidyl-Glu-Phe-Leu amide (peptide)
peptide: H[Aib]EGTFTSDVSSYLEGEAVKEFIAWLVEK[Aib]GEFL-NH2
modifications: N-terminus assumed
SMILES: CC[C@H](C)[C@H](NC(=O)[C@H](Cc1ccccc1)NC(=O)[C@H](CCC(=O)O)NC(=O)[C@H](CCCCN)NC(=O)[C@@H](NC(=O)[C@H](C)NC(=O)[C@H](CCC(=O)O)NC(=O)CNC(=O)[C@H](CCC(=O)O)NC(=O)[C@H](CC(C)C)NC(=O)[C@H](Cc1ccc(O)cc1)NC(=O)[C@H](CO)NC(=O)[C@H](CO)NC(=O)[C@@H](NC(=O)[C@H](CC(=O)O)NC(=O)[C@H](CO)NC(=O)[C@@H](NC(=O)[C@H](Cc1ccccc1)NC(=O)[C@@H](NC(=O)CNC(=O)[C@H](CCC(=O)O)NC(=O)C(C)(C)NC(=O)[C@@H](N)Cc1c[nH]cn1)[C@@H](C)O)[C@@H](C)O)C(C)C)C(C)C)C(=O)N[C@@H](C)C(=O)N[C@@H](Cc1c[nH]c2ccccc12)C(=O)N[C@@H](CC(C)C)C(=O)N[C@H](C(=O)N[C@@H](CCC(=O)O)C(=O)N[C@@H](CCCCN)C(=O)NC(C)(C)C(=O)NCC(=O)N[C@@H](CCC(=O)O)C(=O)N[C@@H](Cc1ccccc1)C(=O)N[C@@H](CC(C)C)C(N)=O)C(C)C
B4: [Aib8,Glu23,Val25,Glu34,Lys35,Aib36,Lys37]-GLP-1-(7-37)-peptidyl-His-Phe-Leu amide (peptide)
peptide: H[Aib]EGTFTSDVSSYLEGEAVKEFIAWLVEK[Aib]KHFL-NH2
modifications: N-terminus assumed
SMILES: CC[C@H](C)[C@H](NC(=O)[C@H](Cc1ccccc1)NC(=O)[C@H](CCC(=O)O)NC(=O)[C@H](CCCCN)NC(=O)[C@@H](NC(=O)[C@H](C)NC(=O)[C@H](CCC(=O)O)NC(=O)CNC(=O)[C@H](CCC(=O)O)NC(=O)[C@H](CC(C)C)NC(=O)[C@H](Cc1ccc(O)cc1)NC(=O)[C@H](CO)NC(=O)[C@H](CO)NC(=O)[C@@H](NC(=O)[C@H](CC(=O)O)NC(=O)[C@H](CO)NC(=O)[C@@H](NC(=O)[C@H](Cc1ccccc1)NC(=O)[C@@H](NC(=O)CNC(=O)[C@H](CCC(=O)O)NC(=O)C(C)(C)NC(=O)[C@@H](N)Cc1c[nH]cn1)[C@@H](C)O)[C@@H](C)O)C(C)C)C(C)C)C(=O)N[C@@H](C)C(=O)N[C@@H](Cc1c[nH]c2ccccc12)C(=O)N[C@@H](CC(C)C)C(=O)N[C@H](C(=O)N[C@@H](CCC(=O)O)C(=O)N[C@@H](CCCCN)C(=O)NC(C)(C)C(=O)N[C@@H](CCCCN)C(=O)N[C@@H](Cc1c[nH]cn1)C(=O)N[C@@H](Cc1ccccc1)C(=O)N[C@@H](CC(C)C)C(N)=O)C(C)C
B5: [Aib8,Glu23,Val25,Glu34,Aib36,Lys37]-GLP-1-(7-37)-peptidyl-Glu-Phe-Leu amide (peptide)
peptide: H[Aib]EGTFTSDVSSYLEGEAVKEFIAWLVEG[Aib]KEFL-NH2
modifications: N-terminus assumed
SMILES: CC[C@H](C)[C@H](NC(=O)[C@H](Cc1ccccc1)NC(=O)[C@H](CCC(=O)O)NC(=O)[C@H](CCCCN)NC(=O)[C@@H](NC(=O)[C@H](C)NC(=O)[C@H](CCC(=O)O)NC(=O)CNC(=O)[C@H](CCC(=O)O)NC(=O)[C@H](CC(C)C)NC(=O)[C@H](Cc1ccc(O)cc1)NC(=O)[C@H](CO)NC(=O)[C@H](CO)NC(=O)[C@@H](NC(=O)[C@H](CC(=O)O)NC(=O)[C@H](CO)NC(=O)[C@@H](NC(=O)[C@H](Cc1ccccc1)NC(=O)[C@@H](NC(=O)CNC(=O)[C@H](CCC(=O)O)NC(=O)C(C)(C)NC(=O)[C@@H](N)Cc1c[nH]cn1)[C@@H](C)O)[C@@H](C)O)C(C)C)C(C)C)C(=O)N[C@@H](C)C(=O)N[C@@H](Cc1c[nH]c2ccccc12)C(=O)N[C@@H](CC(C)C)C(=O)N[C@H](C(=O)N[C@@H](CCC(=O)O)C(=O)NCC(=O)NC(C)(C)C(=O)N[C@@H](CCCCN)C(=O)N[C@@H](CCC(=O)O)C(=O)N[C@@H](Cc1ccccc1)C(=O)N[C@@H](CC(C)C)C(N)=O)C(C)C

target: human GLP-1 receptor (human, UniProt P43220); assay: cell-based or functional assay

Binder | CRE luciferase EC50, 0% HSA | CRE luciferase EC50, 1% HSA
B1 | 67 pM | 32 pM
B2 | 269 pM | 104 pM
B3 | 39 pM | 13 pM
B4 | 205 pM | 62 pM
B5 | 34 pM | 13 pM
